These results are taken from the supplement of paper PMC10567573.

± gives the standard deviation.

The data set can be described thus: protein stability index of a GFP-peptide fusion (GPS, HEK-293T) (PSI 1-6); higher = more stable. The note with it: c terminus: a fixed tail appended.
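Note: 24-mer peptide tiles fused after GFP, lentivirally expressed, FACS-sorted into six equal bins by GFP/DsRed ratio, decoded by Illumina sequencing, PSI is the read-weighted mean bin number.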

With QAVCGKCSSKRSSYPVMGFEFQVR [WDFY1], the protein stability index came out at 2.16 ± 0.23 (treatment: DMSO) and 2.34 ± 0.44 (treatment: MLN4924 1 uM, 8 h).
Regarding QAWFGFAGTPGYLSPEVLRKEAYG [CAMK2B], the protein stability index turned out to be 2.55 ± 0.22 (treatment: DMSO) and 2.76 ± 0.22 (treatment: MLN4924 1 uM, 8 h).
For the sequence QCCQTEIIELRRTVNALEIELQAQ [KRT36], the protein stability index runs as follows: (treatment: DMSO) 2.95 ± 0.49; (treatment: MLN4924 1 uM, 8 h) 2.76 ± 0.4.
Take QDGSESFFFRHGHRGLLTMQLKSP [SPAG8]: the protein stability index runs as follows: (treatment: DMSO) 2.96 ± 0.3; (treatment: MLN4924 1 uM, 8 h) 3.03 ± 0.35.
With QDLCGVSTCDTLGMADVGTVCDPA [ADAMTS4], the protein stability index is, setting by setting: (treatment: DMSO) 5.07 ± 0.25; (treatment: MLN4924 1 uM, 8 h) 5.25 ± 0.26.
In the case of QDVDPVHNLIEQVSLGLGQPWHAV [FBXO33], the protein stability index reads like this: (treatment: DMSO) 2.75 ± 0.17; (treatment: MLN4924 1 uM, 8 h) 2.55 ± 0.18.
The matching figures for QEALDPGPFDQGSPFAQELLDDGQ [ELF3]: 5.58 ± 0.24 and 5.32 ± 0.14.
QEEEEDNRDSSMKLSFRARAYGFR [CHGA]: the protein stability index (treatment: DMSO) is 4.58 ± 0.13 and the protein stability index (treatment: MLN4924 1 uM, 8 h) turned out to be 4.62 ± 0.28.
The matching figures for QETPGPREALTRLQELCYQWLRPH [ZSCAN9]: 2.54 ± 0.12 and 2.6 ± 0.17.
For QFLEEINKWTVQYNVSPLSWNVAV [PTPN9], the protein stability index is, setting by setting: (treatment: DMSO) 2.79 ± 0.82; (treatment: MLN4924 1 uM, 8 h) 2.87 ± 0.49.
Regarding QGLRPRTVSSPIPYTPSPSSSRPI [CCDC6], the protein stability index (treatment: DMSO) came out at 4.64 ± 0.22 and the protein stability index (treatment: MLN4924 1 uM, 8 h) worked out at 4.7 ± 0.16.
The matching figures for QGQAKTPDSMFLAMLAVVSCASIG [CDK11A]: 3.36 ± 0.59 and 3.11 ± 0.63.
For QKGSHPMCKEHEDEKINIYCLTCE [TRIM63] the same measures were 4.64 ± 0.22 and 4.67 ± 0.17.
The matching figures for QKLGSGAWDNPAYSGPPSPHGTLR [PKD2L1]: 3.79 ± 0.1 and 3.95 ± 0.31.
As for QKLQEITRCKSSEEKKPGELKRLV [TRIM39], the protein stability index runs as follows: (treatment: DMSO) 4.16 ± 0.37; (treatment: MLN4924 1 uM, 8 h) 4.21 ± 0.17.
QKTLQVKCQHYKKKRTEQEETIAS [CEP70]: the protein stability index runs as follows: (treatment: DMSO) 4.33 ± 0.34; (treatment: MLN4924 1 uM, 8 h) 4.64 ± 0.2.
For QLGYLLFGTQVENFSTFIKCIFTQ [PKD2L1] the same measures were 2.83 ± 0.41 and 3.27 ± 0.55.
For the sequence QLKEEMARHLREYQELLNVKMALD [PRPH], the protein stability index is, setting by setting: (treatment: DMSO) 3.32 ± 0.22; (treatment: MLN4924 1 uM, 8 h) 3.5 ± 0.36.
Consider QLMEKLREKQLSHSLRAVSTDPPH [BEX1], for which the protein stability index is, setting by setting: (treatment: DMSO) 3.35 ± 0.37; (treatment: MLN4924 1 uM, 8 h) 3.27 ± 0.34.
For QLPRPPIVGGNKGRSGPLPPVPLG [WAS], the protein stability index stood at 3.55 ± 0.13 (treatment: DMSO) and 3.83 ± 0.64 (treatment: MLN4924 1 uM, 8 h).
The matching figures for QLSIERGKVLQNKQAEICQLEEKL [CCDC89]: 4.58 ± 0.4 and 4.45 ± 0.37.
For the sequence QMSGEPLDKLNFEAINFCRGLGSQ [ACSBG2], the protein stability index stood at 3.51 ± 0.49 (treatment: DMSO) and 2.89 ± 0.39 (treatment: MLN4924 1 uM, 8 h).
Turning to QNVHFHRSGSPTVPIKPPCIPNGK [CAMK2D], the protein stability index was 3.85 ± 0.26 (treatment: DMSO) and 4.05 ± 0.2 (treatment: MLN4924 1 uM, 8 h).
QPHHQPPNRAGAPGESLECPAELR [TRAF3IP2]: the protein stability index runs as follows: (treatment: DMSO) 5.42 ± 0.23; (treatment: MLN4924 1 uM, 8 h) 5.21 ± 0.23.
In the case of QPSKSHKKVLKKMLKFLAKGEVPK [ATE1], the protein stability index (treatment: DMSO) is 2.13 ± 0.36 and the protein stability index (treatment: MLN4924 1 uM, 8 h) amounted to 2.26 ± 0.58.
For QQIHVVSQFKILVSLLENNIYVHD [VPS39], the protein stability index by setting is: (treatment: DMSO) 3.08 ± 0.059; (treatment: MLN4924 1 uM, 8 h) 3.23 ± 0.28.
The matching figures for QQTHNIEKAHECTDCGKAFLKKSQ [ZNF649]: 3.93 ± 0.3 and 4.02 ± 0.17.
The matching figures for QRAWVRALNEQACRNGSSIQIAFE [C2CD2L]: 2.46 ± 0.34 and 2.69 ± 0.16.
Regarding QREGTGKTVSLQIFSVLNSDDAAA [SMOC2], the protein stability index was determined as 3.38 ± 0.24 (treatment: DMSO) and 3.35 ± 0.4 (treatment: MLN4924 1 uM, 8 h).
